Experimental findings from US20140274782A1 (Stanford University, published 2014) are described below.

Holding throughout (experiment): ProtoArray, GST-treated control array;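 note: human protein microarray (about 9500 recombinant proteins) incubated overnight with GST alone plus SAM cofactor as the negative control for G9a SET domain methylation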
Assay [1] addresses T1, SMAP1-stromal membrane-associated protein 1 (SMAP1) (human, UniProt Q8IYB5 1-467, limits assumed).
T1 sequence (looked up): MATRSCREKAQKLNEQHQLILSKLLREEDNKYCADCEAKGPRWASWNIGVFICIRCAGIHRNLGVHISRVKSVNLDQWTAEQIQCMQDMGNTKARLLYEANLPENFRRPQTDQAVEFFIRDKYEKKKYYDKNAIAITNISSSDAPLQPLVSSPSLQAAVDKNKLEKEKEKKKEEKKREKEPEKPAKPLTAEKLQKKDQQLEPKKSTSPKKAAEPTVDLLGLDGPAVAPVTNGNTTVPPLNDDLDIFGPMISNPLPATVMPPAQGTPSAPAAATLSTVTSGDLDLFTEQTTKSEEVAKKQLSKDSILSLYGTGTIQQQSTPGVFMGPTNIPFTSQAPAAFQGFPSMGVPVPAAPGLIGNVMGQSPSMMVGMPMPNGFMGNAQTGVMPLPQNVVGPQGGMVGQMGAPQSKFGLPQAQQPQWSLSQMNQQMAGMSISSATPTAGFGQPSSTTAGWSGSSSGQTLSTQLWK

The target in assay [2] is T2, C10orf58-chromosome 10 open reading frame 58 (C10orf58) (human, UniProt Q9BRX8 1-229, limits assumed).
T2 sequence (looked up): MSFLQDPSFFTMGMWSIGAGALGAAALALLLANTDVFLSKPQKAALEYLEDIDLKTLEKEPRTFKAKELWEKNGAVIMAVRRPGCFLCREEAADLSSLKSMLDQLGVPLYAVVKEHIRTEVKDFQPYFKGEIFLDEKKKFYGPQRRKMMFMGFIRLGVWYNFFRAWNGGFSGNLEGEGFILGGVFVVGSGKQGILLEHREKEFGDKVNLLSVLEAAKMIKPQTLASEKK

For assay [3], the target named is T3, CRYZL1-crystallin, zeta (quinone reductase)-like 1 (CRYZL1) (human, UniProt O95825 1-349, limits assumed).
T3 sequence (looked up): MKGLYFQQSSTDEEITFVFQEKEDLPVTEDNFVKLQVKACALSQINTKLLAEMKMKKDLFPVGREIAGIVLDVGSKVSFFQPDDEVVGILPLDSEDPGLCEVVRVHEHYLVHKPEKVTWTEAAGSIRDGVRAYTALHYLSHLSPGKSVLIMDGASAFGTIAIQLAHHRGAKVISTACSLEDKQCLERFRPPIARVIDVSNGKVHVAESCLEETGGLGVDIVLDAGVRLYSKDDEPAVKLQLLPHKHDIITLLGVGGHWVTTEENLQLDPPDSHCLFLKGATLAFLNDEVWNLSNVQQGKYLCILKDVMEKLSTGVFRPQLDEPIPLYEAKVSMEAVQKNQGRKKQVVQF

Assay [4] has as its target T4, RHBDD1-rhomboid domain containing 1 (RHBDD1) (human, UniProt Q8TEB9 1-315, limits assumed).
T4 sequence (looked up): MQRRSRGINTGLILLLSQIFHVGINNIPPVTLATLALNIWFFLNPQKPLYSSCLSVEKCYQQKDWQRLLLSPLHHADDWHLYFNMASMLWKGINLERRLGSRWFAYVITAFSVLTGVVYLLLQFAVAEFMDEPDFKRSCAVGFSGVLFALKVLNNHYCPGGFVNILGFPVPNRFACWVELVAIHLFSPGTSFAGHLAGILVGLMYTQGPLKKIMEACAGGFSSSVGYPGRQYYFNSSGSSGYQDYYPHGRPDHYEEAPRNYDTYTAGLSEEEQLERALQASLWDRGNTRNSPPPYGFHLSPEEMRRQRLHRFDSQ

The target of assay [5] is T5, CDKL5-Cyclin-dependent kinase-like 5 (human, UniProt O76039-1 1-1030, limits assumed).
T5 sequence (looked up): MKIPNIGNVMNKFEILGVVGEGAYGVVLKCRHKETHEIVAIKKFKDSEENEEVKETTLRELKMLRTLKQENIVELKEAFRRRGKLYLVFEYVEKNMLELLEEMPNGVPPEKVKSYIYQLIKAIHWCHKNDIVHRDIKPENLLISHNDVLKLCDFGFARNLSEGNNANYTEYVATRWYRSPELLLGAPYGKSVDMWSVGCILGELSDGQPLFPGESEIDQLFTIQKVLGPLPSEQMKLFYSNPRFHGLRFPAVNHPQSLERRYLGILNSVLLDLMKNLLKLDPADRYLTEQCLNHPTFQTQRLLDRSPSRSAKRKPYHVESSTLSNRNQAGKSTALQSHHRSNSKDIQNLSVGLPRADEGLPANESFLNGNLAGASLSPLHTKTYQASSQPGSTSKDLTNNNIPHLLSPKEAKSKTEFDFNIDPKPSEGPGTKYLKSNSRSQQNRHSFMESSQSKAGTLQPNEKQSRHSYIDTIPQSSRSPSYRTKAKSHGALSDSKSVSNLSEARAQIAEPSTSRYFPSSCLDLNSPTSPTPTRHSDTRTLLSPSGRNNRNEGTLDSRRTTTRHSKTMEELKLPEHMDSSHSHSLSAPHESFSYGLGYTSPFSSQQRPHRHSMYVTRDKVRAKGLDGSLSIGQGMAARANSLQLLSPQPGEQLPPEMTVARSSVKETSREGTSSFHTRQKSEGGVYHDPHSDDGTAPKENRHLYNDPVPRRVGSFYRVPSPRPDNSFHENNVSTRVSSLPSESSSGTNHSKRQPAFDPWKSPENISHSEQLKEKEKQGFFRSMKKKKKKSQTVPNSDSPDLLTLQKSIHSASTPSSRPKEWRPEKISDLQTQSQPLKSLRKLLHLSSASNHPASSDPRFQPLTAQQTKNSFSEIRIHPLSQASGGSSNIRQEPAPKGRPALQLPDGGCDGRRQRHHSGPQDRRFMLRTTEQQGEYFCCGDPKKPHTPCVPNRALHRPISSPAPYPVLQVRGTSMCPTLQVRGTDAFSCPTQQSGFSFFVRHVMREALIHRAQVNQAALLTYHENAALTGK

Assay [6] has as its target T6, DIRAS1-DIRAS family, GTP-binding RAS-like 1 (DIRAS1) (human, UniProt O95057 1-198, limits assumed).
T6 sequence (looked up): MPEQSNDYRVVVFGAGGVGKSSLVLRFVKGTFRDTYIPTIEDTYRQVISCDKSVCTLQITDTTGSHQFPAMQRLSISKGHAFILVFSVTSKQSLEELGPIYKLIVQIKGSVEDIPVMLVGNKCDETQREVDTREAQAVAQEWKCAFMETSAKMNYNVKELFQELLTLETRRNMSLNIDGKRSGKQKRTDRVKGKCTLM

B1: 3× Flag-3×MBT (designed binder)
chain: EEWSSSQPATGEKKECWSWESYLEEQKAITAPVSLFQDSQAVTHNKNGFKLGMKLEGIDPQHPSMYFILTVAEVCGYRLRLHFDGYSECHDFWVNANSPDIHPAGWFEKTGHKLQPPKGYKEEEFSWSQYLRSTRAQAAPKHLFVSQSHSPPPLGFQVGMKLEAVDRMNPSLVCVASVTDVVDSRFLVHFDNWDDTYDYWCDPSSPYIHPVGWCQKQGKPLTPPQDYPDPDNFCWEKYLEETGASAVPTWAFKVRPPHSFLVNMKLEAVDRRNPALIRVASVEDVEDHRIKIHFDGWSHGYDFWIDADHPDIHPAGWCSKTGHPLQPPLGPREPSSASPGG
notes: also called Flag-tagged 3×MBT; 3xFlag-3xMBT; not shown: made by PreScission cleavage of GST-3× Flag-3×MBT
In the case of B1, the “GST Average SNR” value in assay [1] is 1.37; in assay [2], 0.966; in assay [3], -1.42; in assay [4], -0.11; in assay [5], 1.43; in assay [6] it was 0.988.
